Article PMC6335420, “The cell cycle regulator GpsB functions as cytosolic adaptor for multiple cell wall enzymes” (Nature Communications, 2019)
Where two headings read alike, the source gives them in different places. Residues, ends and D or L forms follow the SMILES beside them. No end group written: not given here. *: point of attachment. X1 = CN(C)c1ccc2c(-c3ccc(N4C(=O)CC(*)C4=O)cc3C(=O)[O-])c3ccc(=[N+](C)C)cc-3oc2c1; fluorescein‑maleimide = fluorescein attached via maleimide to Cys

Tests used:
[1] = target: T1, BsGpsB1-68 (Bacillus subtilis, UniProt P0CI74); type: binding; conditions: FP; for reduction in affinity for BsGpsB1-68: relative to wild-type peptide
T1 construct: His6 (N, cleaved yes); made in house; host or cells: E. coli BL21(DE3)
Text: 75 the BsGpsB5-64:BsPBP11-17 complex.

[2] = Circular dichroism of PBP peptides (helicity); type: physicochemical; conditions: CD, 222 nm, 4 °C, 20 mM sodium phosphate pH 7.3, 25 μM peptide
Protocol: CD spectra were recorded on a JASCO J-810 spectropolarimeter with a PTC-4235 Peltier temperature controller using 1 mm path length quartz cuvettes. For full wavelength scans a scan speed of 10 nm^−1min^−1 and a response time of 4 s were used, the final spectra were the average of at least four measurements. BsPBP1_1-32 CD spectra were recorded at 4 °C in a buffer of 20 mM sodium phosphate, pH 7.3 at a peptide concentration of 25 μM. Peptide helical contents were estimated from molar ellipticities at 222 nm using the equation helix = [θ]222 nm / (39,500(1–2.57/n))[78] where n is the number of residues in the peptide. LmPBPA1_1-15 CD spectra were analysed at 40 μM in 20 mM sodium phosphate buffer, pH 7.8, for samples containing 0, 40 and 60% trifluoroethanol (TFE). For samples containing 80% TFE, 5 mM sodium phosphate buffer, pH 7.8, was used. The CD spectra of BsGpsB1-68 proteins were measured at a concentration of 4.5 μM in a buffer of 20 mM sodium phosphate (pH 7.8) 150 mM NaCl. For thermal melt experiments, a response time of 8 s and scan rate of 1 °C^−1min^−1 were used. All thermal melts were reversible as CD spectra recorded before and after the melts in the wavelength range 200–240 nm could be superimposed.

[3] = target: T2, BsGpsB1-68 (B. subtilis, UniProt P0CI74 1-68); experiment: fluorescence polarisation; GpsB protein titrated into TAMRA- or fluorescein-labelled peptide; 10 mM Tris.HCl pH 8.0, 250 mM NaCl, 0.1% reduced Triton X-100; all data fitted to a 1:1 interaction model, Kd ± standard error; conditions: both partners purified
T2 construct: GpsB, Bacillus subtilis, residues 1-68 (N-terminal domain); also called N-terminal domain of B. subtilis GpsB; wildtype BsGpsB1-68; source: E. coli BL21(DE3), purified (Ni-NTA, thrombin removal of the His6-tag, SEC); not shown: His6, N-terminal, cleaved
T2 sequence (looked up): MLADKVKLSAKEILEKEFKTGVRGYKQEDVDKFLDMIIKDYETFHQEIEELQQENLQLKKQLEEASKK

## CSCC[C@H](NC(=O)[C@H](CO)NC(=O)CN)C(=O)N[C@@H](C)C(=O)N[C@@H](CC(=O)O)C(=O)N[C@@H](CCC(N)=O)C(=O)N[C@@H](Cc1ccccc1)C(=O)N[C@@H](CC(N)=O)C(=O)N[C@@H](C)C(=O)N[C@@H](CCCNC(=N)N)C(=O)N[C@@H](CCC(=O)O)C(=O)N[C@@H](C)C(=O)N[C@@H](CCCNC(=N)N)C(=O)N[C@@H](CCCNC(=N)N)C(=O)N[C@@H](CCCCN)C(=O)N[C@@H](C)C(=O)N[C@@H](CC(N)=O)C(=O)N[C@@H](CSC1CC(=O)N(c2ccc(-c3c4ccc(=[N+](C)C)cc-4oc4cc(N(C)C)ccc34)c(C(=O)[O-])c2)C1=O)C(=O)N[C@@H](CCCCN)C(=O)N[C@@H](CO)C(=O)N[C@@H](CO)C(=O)N1CCC[C@H]1C(=O)N[C@@H](CO)C(=O)N1CCC[C@H]1C(=O)N[C@@H](CCCCN)C(=O)N[C@@H](CCCCN)C(=O)NCC(=O)N[C@@H](CCCCN)C(=O)N[C@@H](CCCCN)C(=O)N[C@@H](CCCNC(=N)N)C(=O)N[C@@H](CCCCN)C(=O)N[C@@H](CCCCN)C(=O)NCC(=O)NCC(=O)O (stereo partly drawn) [TAMRA-BsPBP11-32 Ser7Ala] (H-GSMADQFNAREARRKANC(X1)KSSPSPKKGKKRKKGG-OH)
[1]; listed as BsPBP1_1-32^Ser7Ala
  reduction in affinity for BsGpsB1-68: at least 6 fold
[1]; listed as BsPBP11-32Ser7Ala
  reduction in affinity for BsGpsB1-68: > 5 fold
[2]
  helical residues corresponding to helical content: ~ 6 residues
[2]; average of at least four measurements
  α-helical content: 19%

## CSCC[C@H](NC(=O)[C@H](CO)NC(=O)CN)C(=O)N[C@@H](C)C(=O)N[C@@H](CC(=O)O)C(=O)N[C@@H](CCC(N)=O)C(=O)N[C@@H](Cc1ccccc1)C(=O)N[C@@H](CC(N)=O)C(=O)N[C@@H](CO)C(=O)N[C@@H](CCCNC(=N)N)C(=O)N[C@@H](CCC(=O)O)C(=O)N[C@@H](C)C(=O)N[C@@H](C)C(=O)N[C@@H](CCCNC(=N)N)C(=O)N[C@@H](CCCCN)C(=O)N[C@@H](C)C(=O)N[C@@H](CC(N)=O)C(=O)N[C@@H](CSC1CC(=O)N(c2ccc(-c3c4ccc(=[N+](C)C)cc-4oc4cc(N(C)C)ccc34)c(C(=O)[O-])c2)C1=O)C(=O)N[C@@H](CCCCN)C(=O)N[C@@H](CO)C(=O)N[C@@H](CO)C(=O)N1CCC[C@H]1C(=O)N[C@@H](CO)C(=O)N1CCC[C@H]1C(=O)N[C@@H](CCCCN)C(=O)N[C@@H](CCCCN)C(=O)NCC(=O)N[C@@H](CCCCN)C(=O)N[C@@H](CCCCN)C(=O)N[C@@H](CCCNC(=N)N)C(=O)N[C@@H](CCCCN)C(=O)N[C@@H](CCCCN)C(=O)NCC(=O)NCC(=O)O (stereo partly drawn) [TAMRA-BsPBP11-32 Arg11Ala] (H-GSMADQFNSREAARKANC(X1)KSSPSPKKGKKRKKGG-OH)
[1]
  reduction in affinity for BsGpsB1-68: at least 5 fold

## CSCC[C@H](NC(=O)[C@H](CO)NC(=O)CN)C(=O)N[C@@H](C)C(=O)N[C@@H](CC(=O)O)C(=O)N[C@@H](CCC(N)=O)C(=O)N[C@@H](Cc1ccccc1)C(=O)N[C@@H](CC(N)=O)C(=O)N[C@@H](CO)C(=O)N[C@@H](CCCNC(=N)N)C(=O)N[C@@H](CCC(=O)O)C(=O)N[C@@H](C)C(=O)N[C@@H](CCCNC(=N)N)C(=O)N[C@@H](CCCNC(=N)N)C(=O)N[C@@H](CCCCN)C(=O)N[C@@H](C)C(=O)N[C@@H](CC(N)=O)C(=O)N[C@@H](CSC1CC(=O)N(c2ccc(-c3c4ccc(=[N+](C)C)cc-4oc4cc(N(C)C)ccc34)c(C(=O)[O-])c2)C1=O)C(=O)N[C@@H](CCCCN)C(=O)N[C@@H](CO)C(=O)N[C@@H](CO)C(=O)N1CCC[C@H]1C(=O)N[C@@H](CO)C(=O)N1CCC[C@H]1C(=O)N[C@@H](CCCCN)C(=O)N[C@@H](CCCCN)C(=O)NCC(=O)N[C@@H](CCCCN)C(=O)N[C@@H](CCCCN)C(=O)N[C@@H](C)C(=O)N[C@@H](CCCCN)C(=O)N[C@@H](CCCCN)C(=O)NCC(=O)NCC(=O)O (stereo partly drawn) [TAMRA-BsPBP11-32 Arg28Ala] (H-GSMADQFNSREARRKANC(X1)KSSPSPKKGKKAKKGG-OH)
[1]
  binding to BsGpsB1-68 (in words): no effect on binding

## CSCC[C@H](NC(=O)[C@H](CO)NC(=O)CN)C(=O)N[C@@H](C)C(=O)N[C@@H](CC(=O)O)C(=O)N[C@@H](CCC(N)=O)C(=O)N[C@@H](Cc1ccccc1)C(=O)N[C@@H](CC(N)=O)C(=O)N[C@@H](CO)C(=O)N[C@@H](C)C(=O)N[C@@H](CCC(=O)O)C(=O)N[C@@H](C)C(=O)N[C@@H](CCCNC(=N)N)C(=O)N[C@@H](CCCNC(=N)N)C(=O)N[C@@H](CCCCN)C(=O)N[C@@H](C)C(=O)N[C@@H](CC(N)=O)C(=O)N[C@@H](CSC1CC(=O)N(c2ccc(-c3c4ccc(=[N+](C)C)cc-4oc4cc(N(C)C)ccc34)c(C(=O)[O-])c2)C1=O)C(=O)N[C@@H](CCCCN)C(=O)N[C@@H](CO)C(=O)N[C@@H](CO)C(=O)N1CCC[C@H]1C(=O)N[C@@H](CO)C(=O)N1CCC[C@H]1C(=O)N[C@@H](CCCCN)C(=O)N[C@@H](CCCCN)C(=O)NCC(=O)N[C@@H](CCCCN)C(=O)N[C@@H](CCCCN)C(=O)N[C@@H](CCCNC(=N)N)C(=O)N[C@@H](CCCCN)C(=O)N[C@@H](CCCCN)C(=O)NCC(=O)NCC(=O)O (stereo partly drawn) [TAMRA-BsPBP11-32 Arg8Ala] (H-GSMADQFNSAEARRKANC(X1)KSSPSPKKGKKRKKGG-OH)
[1]
  reduction in affinity for BsGpsB1-68: at least 5 fold

## CSCC[C@H](NC(=O)[C@H](CO)NC(=O)CN)C(=O)N[C@@H](C)C(=O)N[C@@H](CC(=O)O)C(=O)N[C@@H](CCC(N)=O)C(=O)N[C@@H](Cc1ccccc1)C(=O)N[C@@H](CC(N)=O)C(=O)N[C@@H](CO)C(=O)N[C@@H](CCCCN)C(=O)N[C@@H](CCC(=O)O)C(=O)N[C@@H](C)C(=O)N[C@@H](CCCNC(=N)N)C(=O)N[C@@H](CCCNC(=N)N)C(=O)N[C@@H](CCCCN)C(=O)N[C@@H](C)C(=O)N[C@@H](CC(N)=O)C(=O)N[C@@H](CSC1CC(=O)N(c2ccc(-c3c4ccc(=[N+](C)C)cc-4oc4cc(N(C)C)ccc34)c(C(=O)[O-])c2)C1=O)C(=O)N[C@@H](CCCCN)C(=O)N[C@@H](CO)C(=O)N[C@@H](CO)C(=O)N1CCC[C@H]1C(=O)N[C@@H](CO)C(=O)N1CCC[C@H]1C(=O)N[C@@H](CCCCN)C(=O)N[C@@H](CCCCN)C(=O)NCC(=O)N[C@@H](CCCCN)C(=O)N[C@@H](CCCCN)C(=O)N[C@@H](CCCNC(=N)N)C(=O)N[C@@H](CCCCN)C(=O)N[C@@H](CCCCN)C(=O)NCC(=O)NCC(=O)O (stereo partly drawn) [TAMRA-BsPBP11-32 Arg8Lys] (H-GSMADQFNSKEARRKANC(X1)KSSPSPKKGKKRKKGG-OH)
[1]
  reduction in affinity for BsGpsB1-68: at least 5 fold

B1: Fluorescein-BsPBP11-32 Ala10Pro (peptide)
peptide: GSMADQFNSREPRRKANSKSSPSPKKGKKRKKC(fluorescein‑maleimide)G
notes: non-native N-terminal residues left by the recombinant method; PBP1 (ponA), Bacillus subtilis, residues 1-32; also called 31-labelled BsPBP1 1-32 A10P
[3]
  Kd: > 500 µM

B2: Fluorescein-BsPBP11-32 wildtype (peptide)
peptide: GSMADQFNSREARRKANSKSSPSPKKGKKRKKC(fluorescein‑maleimide)G
notes: non-native N-terminal residues left by the recombinant method; PBP1 (ponA), Bacillus subtilis, residues 1-32, cytoplasmic mini-domain; also called BsPBP1 1-32 labelled with fluorescein at residue 31; 31-labelled peptide
[3]
  Kd: 100 µM

B3: TAMRA-BsPBP11-32 Ser7Ala (peptide)
peptide: GSMADQFNAREARRKANC(TAMRA‑maleimide)KSSPSPKKGKKRKKGG
notes: non-native N-terminal residues left by the recombinant method; PBP1 (ponA), Bacillus subtilis, residues 1-32; also called BsPBP1 1-32 S7A
[3]
  Kd: > 700 µM

B4: TAMRA-BsPBP11-32 Arg8Lys (peptide)
peptide: GSMADQFNSKEARRKANC(TAMRA‑maleimide)KSSPSPKKGKKRKKGG
notes: non-native N-terminal residues left by the recombinant method; PBP1 (ponA), Bacillus subtilis, residues 1-32; also called BsPBP1 1-32 R8K
[3]
  Kd: > 2000 µM

B5: TAMRA-BsPBP11-32 Arg8Ala (peptide)
peptide: GSMADQFNSAEARRKANC(TAMRA‑maleimide)KSSPSPKKGKKRKKGG
notes: non-native N-terminal residues left by the recombinant method; PBP1 (ponA), Bacillus subtilis, residues 1-32; also called BsPBP1 1-32 R8A
[3]
  Kd: > 1700 µM

B6: Fluorescein-BsPBP11-32 Arg28Ala (peptide)
peptide: GSMADQFNSREARRKANSKSSPSPKKGKKAKKC(fluorescein‑maleimide)G
notes: non-native N-terminal residues left by the recombinant method; PBP1 (ponA), Bacillus subtilis, residues 1-32; also called 31-labelled BsPBP1 1-32 R28A
[3]
  Kd: 130 µM

B7: TAMRA-BsPBP11-32 Arg11Ala (peptide)
peptide: GSMADQFNSREAARKANC(TAMRA‑maleimide)KSSPSPKKGKKRKKGG
notes: non-native N-terminal residues left by the recombinant method; PBP1 (ponA), Bacillus subtilis, residues 1-32; also called BsPBP1 1-32 R11A
[3]
  Kd: > 600 µM

B8: TAMRA-BsPBP11-32 Ala10Pro (peptide)
peptide: GSMADQFNSREPRRKANC(TAMRA‑maleimide)KSSPSPKKGKKRKKGG
notes: non-native N-terminal residues left by the recombinant method; PBP1 (ponA), Bacillus subtilis, residues 1-32; also called BsPBP1 1-32 A10P
[3]
  Kd: > 1000 µM

B9: Fluorescein-BsPBP11-32 Arg8Ala (peptide)
peptide: GSMADQFNSAEARRKANSKSSPSPKKGKKRKKC(fluorescein‑maleimide)G
notes: non-native N-terminal residues left by the recombinant method; PBP1 (ponA), Bacillus subtilis, residues 1-32; also called 31-labelled BsPBP1 1-32 R8A
[3]
  Kd: > 500 µM

B10: TAMRA-BsPBP11-32 Arg28Ala (peptide)
peptide: GSMADQFNSREARRKANC(TAMRA‑maleimide)KSSPSPKKGKKAKKGG
notes: non-native N-terminal residues left by the recombinant method; PBP1 (ponA), Bacillus subtilis, residues 1-32; also called BsPBP1 1-32 R28A
[3]
  Kd: 90 µM
